Source: patent publication US20240287172A1 (SCIRHOM, published 2024)

Tests used:
[1] = molecular target: T1, dog iRhom2 full length wild type, T7-tagged (dog, UniProt Q00M95 1-827); experiment: FACS on MEF-DKO-iR2 Dog cells, 3 µg/ml
T1 construct: whole, on cells; on MEF-DKO cells; also called Dog-iR2-FL-WT-T7
T1 sequence: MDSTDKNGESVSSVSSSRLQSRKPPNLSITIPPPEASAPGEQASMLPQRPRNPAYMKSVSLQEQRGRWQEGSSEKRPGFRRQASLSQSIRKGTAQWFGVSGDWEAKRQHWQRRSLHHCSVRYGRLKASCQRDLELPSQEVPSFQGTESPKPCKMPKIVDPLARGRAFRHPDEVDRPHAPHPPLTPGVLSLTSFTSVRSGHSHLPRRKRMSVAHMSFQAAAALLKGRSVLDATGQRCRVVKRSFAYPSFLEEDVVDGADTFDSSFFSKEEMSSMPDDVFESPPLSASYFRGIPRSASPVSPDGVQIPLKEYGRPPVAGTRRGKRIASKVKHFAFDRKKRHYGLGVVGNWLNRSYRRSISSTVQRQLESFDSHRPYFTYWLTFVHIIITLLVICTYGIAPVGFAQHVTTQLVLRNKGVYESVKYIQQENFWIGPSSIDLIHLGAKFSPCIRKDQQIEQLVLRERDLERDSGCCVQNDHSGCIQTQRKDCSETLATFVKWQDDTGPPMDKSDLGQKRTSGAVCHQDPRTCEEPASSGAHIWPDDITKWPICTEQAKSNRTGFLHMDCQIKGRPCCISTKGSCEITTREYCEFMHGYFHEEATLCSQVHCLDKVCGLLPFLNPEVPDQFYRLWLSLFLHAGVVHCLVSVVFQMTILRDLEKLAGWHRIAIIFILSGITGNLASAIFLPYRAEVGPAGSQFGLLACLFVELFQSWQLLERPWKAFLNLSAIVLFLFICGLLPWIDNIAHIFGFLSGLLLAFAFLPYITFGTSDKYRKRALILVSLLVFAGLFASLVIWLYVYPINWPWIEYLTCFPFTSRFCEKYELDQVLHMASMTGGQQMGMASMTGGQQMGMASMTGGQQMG
Experimental: In brief, immortalized MEF-DKO-EV control cells, MEF-DKO-rhesus-iR2-FL-WT-T7 cells, MEF-DKO-cyno-iR2-FL-WT-T7 cells, MEF-DKO-dog-iR2-FL-WT-T7 cells and MEF-DKO-rabbit-iR2-FL-WT-T7 cells, as well as their respective iRhom1 counterparts, were harvested with 10 mM EDTA in PBS, washed and resuspended in FACS buffer (PBS, 3% FBS, 0.05% sodium azide), and seeded in Nunc U-bottom 96-well plates (Thermo Fisher Scientific, USA) at approximately 3×10⁵ cells per well. To pellet cells and remove supernatants, the plates were centrifuged at 1,500 rpm and 4° C. for 3 minutes. For primary staining, cells were resuspended in 100 μl per well of either FACS buffer alone (controls), mouse monoclonal anti-T7 IgG (Merck Millipore, USA) at 3 μg/ml FACS buffer or the antibodies of the invention also at 3 μg/ml FACS buffer and incubated on ice for 1 hour.
Afterwards, plates were centrifuged at 1,500 rpm and 4° C. for 3 minutes and washed twice with 200 μl per well of FACS buffer. For secondary staining, cells were spun down and resuspended in 100 μl per well of PE-conjugated goat anti-mouse IgG F(ab′)2 detection fragment (Dianova, Germany) diluted 1:100 in FACS buffer. Protected from light, the cell suspensions were incubated on ice for 1 hour. […] Finally, cells were resuspended in 150 μl per well of FACS buffer and analyzed using a BD Accuri™ C6 Plus flow cytometer (Becton Dickinson, Germany).

hiR1-FL-WT-T7 = molecular target: T2, hiR1-FL-WT-T7 (human, UniProt Q96CC6 1-855); experiment: FACS on MEF-DKO-hiR1-FL-WT-T7 cells
T2 construct: on MEF-DKO cells
T2 sequence: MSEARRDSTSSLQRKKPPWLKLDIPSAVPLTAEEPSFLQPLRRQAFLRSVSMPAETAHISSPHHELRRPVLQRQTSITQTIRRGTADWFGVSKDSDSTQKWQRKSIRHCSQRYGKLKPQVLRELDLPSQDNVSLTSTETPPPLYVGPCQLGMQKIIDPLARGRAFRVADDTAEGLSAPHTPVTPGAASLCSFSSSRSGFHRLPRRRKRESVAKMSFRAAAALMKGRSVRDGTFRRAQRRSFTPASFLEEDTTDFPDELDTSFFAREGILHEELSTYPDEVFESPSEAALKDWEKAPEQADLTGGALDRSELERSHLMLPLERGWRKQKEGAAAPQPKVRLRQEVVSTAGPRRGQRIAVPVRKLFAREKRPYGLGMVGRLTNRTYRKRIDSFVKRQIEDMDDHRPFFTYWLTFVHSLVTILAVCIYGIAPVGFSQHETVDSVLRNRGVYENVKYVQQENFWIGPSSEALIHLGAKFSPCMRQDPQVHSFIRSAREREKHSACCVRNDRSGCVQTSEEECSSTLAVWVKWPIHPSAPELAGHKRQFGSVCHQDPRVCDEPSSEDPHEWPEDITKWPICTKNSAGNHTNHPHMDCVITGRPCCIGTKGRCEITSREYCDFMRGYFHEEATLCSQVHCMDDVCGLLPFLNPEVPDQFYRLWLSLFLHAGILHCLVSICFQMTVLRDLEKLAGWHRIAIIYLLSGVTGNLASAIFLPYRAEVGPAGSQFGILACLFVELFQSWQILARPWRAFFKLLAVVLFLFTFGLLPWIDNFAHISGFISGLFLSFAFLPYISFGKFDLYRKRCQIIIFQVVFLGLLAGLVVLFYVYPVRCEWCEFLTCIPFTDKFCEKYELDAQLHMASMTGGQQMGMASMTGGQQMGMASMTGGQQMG

B1: antibody 16 (antibody, V domains shown)
VH: QVTLKESGPGILQPSQTLSLTCSFSGFSLSTFALGVGWIRQPSGRGLEWLAHIWWDDDKYYNPALKSRLTISKDTSKNHVFLKIANVDTADTATYYCARITTYYYGMDYWGQGTSVTVSS
VL: DIVLSQSPATLSVTPGDSVSLFCRASQSIGNHLHWYQQESHASPRLLIKYASQSISGIPSRFSGSGSGTDFTLSINSVETEDFGMYFCQQSYNWPLTFGAGTKLELK
notes: mouse IgG, kappa light chain; also called clone #16; purified antibody 16
binding result [1]: binds

B2: antibody 3 (antibody, V domains shown)
VH: QVTLKESGPGILQPSQTLSLTCSFSGFSLTTFAMGIGWVRQPSGKGLEWLAHIWWDGEKYNNPVLKSRLTISKDTSKNQVFLRIANVDTPDTATYYCARISSIYYIIDNWGQGTSVTVSS
VL: DIVLTQSPATLSVTPGHSVSLSCRASQSISNNLHWYQKKSHESPRLLIKYVSQSISGIPSRFSGSGSGTDFTLSINSVETEDFGMYFCQQSYNWPLTFGAGTKLELK
notes: mouse IgG, kappa light chain; also called clone #3; purified antibody 3
binding result (hiR1-FL-WT-T7): no binding (tested: 3 µg/ml)
